Starred links: 1 amine or outer side, 2 acyl side, 3 side chain; linkers in the order of their positions; H or OH if unused. Positions of bridges follow the written chain, without caps; N, C: chain ends. Non-standard residues stand in square brackets, D forms with d. Residues, ends and D or L forms follow the SMILES beside them. *: point of attachment. X1 = COc1cc2cc(c1Cl)N(C)C(=O)C[C@H](OC(=O)[C@H](C)N(C)C(=O)CCSSC(C)(C)CCC(=O)*)[C@]1(C)O[C@H]1[C@H](C)[C@@H]1C[C@@](O)(NC(=O)O1)[C@H](OC)/C=C/C=C(\C)C2; 1Nal = N[C@@H](Cc1cccc2ccccc12)C(=O)O; TBMB = c1c(C[*:1])cc(C[*:3])cc1C[*:2]; Tle = CC(C)(C)[C@H](N)C(=O)O; βAla = NCCC(=O)O; Sar = CNCC(=O)O

This is an account of results in patent US10994019B2, “Bicyclic peptide-toxin conjugates specific for MT1-MMP” (BicycleRD Limited, priority 2016, dated 2021).

Series [1] can be described thus: Plasma stability profiling, Method #2 (quantitative LC-MS), human plasma. It counts as in vitro ADME. Particulars: incubation up to 24 hrs in plasma, 4 μM BDC, read-out: t1/2 (hrs) (human plasma) (converted). On the procedure:
(§1) To obtain plasma stability of bicyclic peptides quantitatively, peptide stock solutions (160 μM in DMSO) were mixed with plasma (human, rat or mouse), such that final concentrations were 4 μM, and incubated at 37° C. 40 μL samples were taken periodically up to 24 hrs and frozen at −80° C. Prior to LC-MS analysis, samples were defrosted, and mixed with 3 volumes (here, 120 μL) of 1 part water, 3 parts acetonitrile and 3 parts methanol. The milky suspensions were centrifuged for 40 min at 14000 rpm in a cooled centrifuge, and peptide-containing supernatants were quantitated for doubly/triply charged species and MS/MS fragments thereof using a Waters Xevo TQ-D instrument, while using a plasma extracted standard curve of the same peptides as a reference. The half-life of degradation in plasma was used to assess the comparative stability of the molecules.

Series [2] in a line: Plasma stability profiling, Method #2 (quantitative LC-MS), mouse plasma. The following applies: incubation up to 24 hrs in plasma, 4 μM BDC, read-out: t1/2 (hrs) (mouse plasma) (converted). The series is classed as in vitro ADME. The method, then: as §1
A short description of series [3]: Plasma stability profiling, Method #2 (quantitative LC-MS), rat plasma. The following applies: incubation up to 24 hrs in plasma, 4 μM BDC, read-out: t1/2 (hrs) (rat plasma) (converted). The series is classed as in vitro ADME. The method, then: as §1
Series [4] in a line: Relative stability to DTT of Bicycle Drug Conjugates by quantitative LC-MS. The series is classed as physicochemical. Particulars: compared to unhindered disulphide BDCs. The method, then:
Both BDC conjugate structures were assessed for several in vitro parameters such as retention of potency to the human MT1-MMP hemopexin domain, stability in mouse, rat and human plasma, and stability to reducing agents such as dithiothreitol.

Another series concerns EBC-1 xenograft tumours. The series is described as follows: Efficacy in EBC-1 xenograft mice. It counts as in vivo, Balb/c nude mice. On the procedure:
(§2) Efficacy of BT17BDC-27 and BT17BDC-28 in EBC-1 Xenograft Mice.
(§3) Balb/c nude mice bearing subcutaneous EBC-1 xenograft tumours were treated with BDCs or vehicle. BDCs were dosed 3 times weekly for 2 weeks, dosing initiated when tumours measured approx. 150-200 mm^3. Mice were monitored, and measurements of tumour volume and body weight recorded 3 times a week.
Both BDCs were tested for their efficacies in in vivo mouse xenograft models, using the human lung squamous cell carcinoma line EBC-1.

The nature of series [5]: Body weight during treatment of EBC-1 xenograft mice. The series is classed as in vivo, Balb/c nude mice. The following applies: 10 mg/kg. On the procedure: FIG. 2: Body weight during treatment of EBC-1 xenograft mice with BT17BDC-27, which is indicative of drug-associated toxicology and overall animal health.
FIG. 4: Body weight during treatment of EBC-1 xenograft mice with BT17BDC-28, which is indicative of drug-associated toxicology and overall animal health.
as §2, §3

The conditions of series [6]: cited from earlier work; for reduction in sensitivity to a reducing agent such as dithiothreitol: in the antibody drug conjugate context; for Relative Stability to DTT (ADC): values relate to antibody drug conjugates containing the disulphide linker.
The subject of series [7] is murine, dog, cynomolgus and human MT1-MMP. The experiment in a line: Species cross-reactivity of peptide ligands. The series is classed as binding.
In series [8] the test system is MMP-1, MMP-2, MMP-15 and MMP-16. The experiment in a line: Selectivity for MT1-MMP over other MMPs. It counts as binding.
Setting [9] is: 10 mg/kg, dosed 3 times weekly for 2 weeks.

Take `COc1cc2cc(c1Cl)N(C)C(=O)C[C@H](OC(=O)[C@H](C)N(C)C(=O)CCSSC(C)(C)CCC(=O)N[C@@H](C)C(=O)N[C@H]1CSCc3cc4cc(c3)CSC[C@H](NC(=O)[C@@H](C)NC(=O)[C@H](Cc3cccc5ccccc35)NC(=O)[C@H](CCC(=O)O)NC(=O)[C@H](CC(N)=O)NC(=O)[C@@H](C)NC1=O)C(=O)N[C@@H](CCC(=O)O)C(=O)N[C@@H](CC(=O)O)C(=O)N[C@@H](Cc1ccccc1)C(=O)N[C@@H](Cc1ccc(O)cc1)C(=O)N[C@@H](CC(=O)O)C(=O)N[C@@H](C(C)(C)C)C(=O)N[C@H](C(N)=O)CSC4)[C@]1(C)O[C@H]1[C@H](C)[C@@H]1C[C@@](O)(NC(=O)O1)[C@H](OC)/C=C/C=C(\C)C2` [BT17BDC-27] (X1-AC[dA]NE[1Nal][dA]CEDFYD[Tle]C-NH2; linker 2-8-15 via TBMB): the half-life at 4 μM in [1] is 36 h; in series [2] it was 23 h; in [3] it was 9 h. Also, the “Relative Stability to DTT (BDC)” value in series [4] is 32. In the series with EBC-1 xenograft tumours (setting [9]), this compound returned a cleared tumours within of at most 14 days. The efficacy and tolerability result with EBC-1 xenograft tumours (doses equal or lower than 5 mg/kg) is “appreciable efficacy and tolerability”. Further, the body weight entry in series [5] is given as “slight reduction in body weight”. In addition, the “reduction in sensitivity to a reducing agent such as dithiothreitol” value in series [6] is 14 fold. Also, the “Relative Stability to DTT (ADC)” value in [6] is given as 14.
On to `C[C@H](NC(=O)CN(C)C(=O)CN(C)C(=O)CN(C)C(=O)CN(C)C(=O)CN(C)C(=O)CN(C)C(=O)CN(C)C(=O)CN(C)C(=O)CN(C)C(=O)CN(C)C(=O)CCN)C(=O)N[C@H]1CSCc2cc3cc(c2)CSC[C@H](NC(=O)[C@@H](C)NC(=O)[C@H](Cc2cccc4ccccc24)NC(=O)[C@H](CCC(=O)O)NC(=O)[C@H](CC(N)=O)NC(=O)[C@@H](C)NC1=O)C(=O)N[C@@H](CCC(=O)O)C(=O)N[C@@H](CC(=O)O)C(=O)N[C@@H](Cc1ccccc1)C(=O)N[C@@H](Cc1ccc(O)cc1)C(=O)N[C@@H](CC(=O)O)C(=O)N[C@@H](C(C)(C)C)C(=O)N[C@H](C(N)=O)CSC3` [17-69-07-N241, bAla-Sar10-A-(17-69-07) D-Ala1 1Nal4 D-Ala5 tBuGly11] (H-[βAla][Sar][Sar][Sar][Sar][Sar][Sar][Sar][Sar][Sar][Sar]AC[dA]NE[1Nal][dA]CEDFYD[Tle]C-NH2; linker 13-19-26 via TBMB), for which the “cross-reactivity with murine, dog, cynomolgus and human MT1-MMP” value in series [7] is recorded as “fully cross reactive”.
For `COc1cc2cc(c1Cl)N(C)C(=O)C[C@H](OC(=O)[C@H](C)N(C)C(=O)CCSSC(C)(C)CCC(=O)NCCC(=O)N(C)CC(=O)N(C)CC(=O)N(C)CC(=O)N(C)CC(=O)N(C)CC(=O)N(C)CC(=O)N(C)CC(=O)N(C)CC(=O)N(C)CC(=O)N(C)CC(=O)N[C@@H](C)C(=O)N[C@H]1CSCc3cc4cc(c3)CSC[C@H](NC(=O)[C@@H](C)NC(=O)[C@H](Cc3cccc5ccccc35)NC(=O)[C@H](CCC(=O)O)NC(=O)[C@H](CC(N)=O)NC(=O)[C@@H](C)NC1=O)C(=O)N[C@@H](CCC(=O)O)C(=O)N[C@@H](CC(=O)O)C(=O)N[C@@H](Cc1ccccc1)C(=O)N[C@@H](Cc1ccc(O)cc1)C(=O)N[C@@H](CC(=O)O)C(=O)N[C@@H](C(C)(C)C)C(=O)N[C@H](C(N)=O)CSC4)[C@]1(C)O[C@H]1[C@H](C)[C@@H]1C[C@@](O)(NC(=O)O1)[C@H](OC)/C=C/C=C(\C)C2` [BT17BDC-28] ({X1-βAla}-[Sar][Sar][Sar][Sar][Sar][Sar][Sar][Sar][Sar][Sar]AC[dA]NE[1Nal][dA]CEDFYD[Tle]C-NH2; linker 12-18-25 via TBMB), the half-life at 4 μM in series [1] is 29 h; in series [2], 19 h; in [3], 13 h. The “Relative Stability to DTT (BDC)” value in [4] is 28. In the series with EBC-1 xenograft tumours (setting [9]), the “effect on tumour growth” value is listed as “tumour growth stasis but not active regression”. Besides, the body weight entry in series [5] was “no weight loss was observed”. For the same compound, the “reduction in sensitivity to a reducing agent such as dithiothreitol” value in series [6] was 14 fold. The “Relative Stability to DTT (ADC)” value in series [6] is listed as 14.
For the compound `C[C@H](N)C(=O)N[C@H]1CSCc2cc3cc(c2)CSC[C@H](NC(=O)[C@@H](C)NC(=O)[C@H](Cc2cccc4ccccc24)NC(=O)[C@H](CCC(=O)O)NC(=O)[C@H](CC(N)=O)NC(=O)[C@@H](C)NC1=O)C(=O)N[C@@H](CCC(=O)O)C(=O)N[C@@H](CC(=O)O)C(=O)N[C@@H](Cc1ccccc1)C(=O)N[C@@H](Cc1ccc(O)cc1)C(=O)N[C@@H](CC(=O)O)C(=O)N[C@@H](C(C)(C)C)C(=O)N[C@H](C(N)=O)CSC3` [17-69-07-N268, A-(17-69-07) D-Ala1 1Nal4 D-Ala5 tBuGly11] (H-AC[dA]NE[1Nal][dA]CEDFYD[Tle]C-NH2; linker 2-8-15 via TBMB), the “cross-reactivity with murine, dog, cynomolgus and human MT1-MMP” value in series [7] is reported as “fully cross reactive”.
Take “-Ci-Y-N-E-F-G-Cii-E-D-F-Y-D-I-Ciii- [17-69-07]”: in series [8], the “selectivity for MT1-MMP (no cross-reaction with MMP-1, MMP-2, MMP-15 and MMP-16)” value was “uniquely selective for MT1-MMP”.
